We go through two molecules from paper PMC4134263.

Data set [1] concerns the target T1, PdhR (Escherichia coli, UniProt P0ACL9 1-254). The data set can be described thus: EMSA.
Data set [2] has as its target T1, PdhR. The data set can be described thus: EMSA. This is another data set of the same source.

Where two headings read alike, the source gives them in different places.

T1 sequence (P0ACL9 whole entry): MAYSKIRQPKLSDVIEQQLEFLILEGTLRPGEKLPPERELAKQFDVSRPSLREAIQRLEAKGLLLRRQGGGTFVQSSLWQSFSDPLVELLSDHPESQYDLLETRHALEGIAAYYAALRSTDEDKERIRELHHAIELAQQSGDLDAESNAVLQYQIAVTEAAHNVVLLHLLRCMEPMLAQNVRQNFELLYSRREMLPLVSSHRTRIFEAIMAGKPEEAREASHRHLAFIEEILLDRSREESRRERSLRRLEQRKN

B1: lipA site 2 probe (dsDNA)
DNA 1: CAAAAATAGTTGATAATTACAACAATCTATTGAATTGAAACGC
DNA 2: GCGTTTCAATTCAATAGATTGTTGTAATTATCAACTATTTTTG
For B1, in data set [1], the binding result is “no binding”.

B2: lipA site 1 probe (dsDNA)
DNA 1: GAAACGCTTTCCTTCGTAATTCGCAACTGGAACACGCACGCTATGAG
DNA 2: CTCATAGCGTGCGTGTTCCAGTTGCGAATTACGAAGGAAAGCGTTTC
For B2, in data set [2], the binding result is reported as “no binding”.
